The values below come from paper PMC6393291 (Nucleic Acids Research, 2018).

The target in the experiment is T1, MSL2-FLAG (D. melanogaster, UniProt P50534 1-773).
T1 sequence (looked up): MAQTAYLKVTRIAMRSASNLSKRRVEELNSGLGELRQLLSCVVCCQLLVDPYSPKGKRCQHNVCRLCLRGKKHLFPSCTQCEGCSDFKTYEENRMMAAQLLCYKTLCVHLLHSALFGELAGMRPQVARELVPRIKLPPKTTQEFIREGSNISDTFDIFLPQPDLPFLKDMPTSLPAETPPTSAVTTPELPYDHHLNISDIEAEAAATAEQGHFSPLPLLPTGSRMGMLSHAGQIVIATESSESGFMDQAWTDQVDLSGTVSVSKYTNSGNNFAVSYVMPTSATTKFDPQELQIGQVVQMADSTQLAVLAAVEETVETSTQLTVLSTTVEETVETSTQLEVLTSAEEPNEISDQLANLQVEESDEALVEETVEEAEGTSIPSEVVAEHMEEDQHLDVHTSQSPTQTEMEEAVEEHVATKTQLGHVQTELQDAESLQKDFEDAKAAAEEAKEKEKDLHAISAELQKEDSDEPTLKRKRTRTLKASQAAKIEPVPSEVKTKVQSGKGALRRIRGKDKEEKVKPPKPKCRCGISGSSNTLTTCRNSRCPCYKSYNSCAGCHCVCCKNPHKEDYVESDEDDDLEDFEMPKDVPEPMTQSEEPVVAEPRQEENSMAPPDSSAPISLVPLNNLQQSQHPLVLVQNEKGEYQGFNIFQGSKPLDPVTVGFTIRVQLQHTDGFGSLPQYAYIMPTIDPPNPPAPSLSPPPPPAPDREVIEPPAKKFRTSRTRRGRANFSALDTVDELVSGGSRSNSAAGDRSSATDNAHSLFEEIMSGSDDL
The experiment can be described thus: co-IP.

B1: CLAMP-FLAG (natural protein, D. melanogaster, UniProt Q9V9N4 1-561, looked up)
chain: MEDLTKNIIFTNAINGQPATIQYQTADGTILKQPKIEGQKTEQQPTFYYTTNGNGGTVNLAQLATTDDNKTCYIAQPVGGYNYALVNGMPLNQGAALGIATVDAQGRIQIVNQNKPIAANTISNISFKCDVCSDMFPHLALLNAHKRMHTDGEQQQQQQHNAQAGGDSIAVVSAQGLVQAQNIIGNGQMGQIQIVSSDTLEPVQQSVMQQQQHESKASKCINCGSSMLQQSKRKGPKQVRCESCMQAEQTAQQQQQLFVAQDGQMAHPVQIISTTPQAQAQLQQIVAAQTGGTTPKREASSGSGHHPVKKRNSQQMTKCQKCNGSGVVLVGQHSHASHSGVGGSVKQSVTVKTENPSKPFSCNICGGLFSRYSSLWSHKKLHSGEKNYKCSICGLAFAKAVYLKNHARIHTGEKPYKCQTCGMQFSQSPHLKNHERTHSGERPYVCGVCDKGFARHATLWNHRRIHTGEKPYKCEICGSAFSQAAHLKNHAKVHSGEKPYKCEICSAAFADRFALKRHRGIHQKYGQTAPRQTSSDGMIVHKQEIPDMEDEAQQEVIIGGL
On to B1, for which the binding result was “binds”.
